This note sets out measurements from paper PMC5966398, “Conserved RNA binding activity of a Yin-Yang 1 homologue in the ova of the purple sea urchin Strongylocentrotus purpuratus”.

In the series the target is SpYY1 (recombinant) (Strongylocentrotus purpuratus, UniProt A0A7M7RHL1 1-400). Nature of the series: EMSA; 250 nM protein, 10 nM probe; 50 mM NaCl, 50 mM Tris-HCl pH 7.5, 2 mM MgCl2, 1 mM DTT, 5% glycerol, room temperature 20 min; 10 nM probe; recombinant protein 0.5 uM (Methods) or 250 nM (Fig. 4 legend); lysate reactions with poly-dIdC (DNA) or yeast tRNA (RNA). The conditions noted are these: tags: His tag and EK site from pRSetB (text says C-terminal).
SpYY1 (recombinant), sequence (A0A7M7RHL1 entry or part of it): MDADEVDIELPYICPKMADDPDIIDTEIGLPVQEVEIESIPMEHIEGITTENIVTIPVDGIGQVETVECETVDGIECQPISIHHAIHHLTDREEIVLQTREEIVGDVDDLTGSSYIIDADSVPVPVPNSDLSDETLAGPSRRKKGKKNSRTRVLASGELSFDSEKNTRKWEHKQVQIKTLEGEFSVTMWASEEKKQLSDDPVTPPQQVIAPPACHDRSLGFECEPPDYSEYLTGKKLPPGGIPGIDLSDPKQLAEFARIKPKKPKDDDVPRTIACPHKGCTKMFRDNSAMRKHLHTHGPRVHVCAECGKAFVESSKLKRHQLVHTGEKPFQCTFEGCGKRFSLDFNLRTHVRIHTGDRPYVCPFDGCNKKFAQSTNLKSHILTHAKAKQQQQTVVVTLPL

B1: YY1 consensus DNA element (YY1C) (dsDNA)
DNA 1: CTAGGCGCTCCCCGGCCATCTTGGCGGCTGGT
DNA 2: ACCAGCCGCCAAGATGGCCGGGGAGCGCCTAG
Regarding B1, the binding result (label: 32P end-fill when probe) was “binds”. With UUUUUUUUUUUUUUUUUUUU (ssRNA) [U(20) RNA], the binding result (label: 5'-32P when probe, single strand) is “binds”.
